Article PMC9334453, “A native IgE in complex with profilin provides insights into allergen recognition and cross-reactivity” (Communications Biology, 2022)
Each block holds one binder with its values, some of them ahead of it.

What was measured:
Details in all cases: both partners purified
[1] = target: T1, DDDK-rHev b 8 (rHev b 8 with the last four residues of the enterokinase cleavage site at the N-terminus) (Hevea brasiliensis); assay: MALDI-TOF mass spectrometry; sinapinic acid matrix; samples of Fab/IgE 2F5 and of its complex with rHev b 8 (whole construct); the peaks of the complex and of the dimeric Fab were not calibrated
T1 construct: last four residues of the enterokinase cleavage site left at the N-terminus (D-3, D-2, D-1, K-0); D-2 makes a hydrogen bond with Y49 of the Fab light chain; profilin Hev b 8, Hevea brasiliensis, from M1; The whole construct was expected at 18,283 Da but measured 14,625 Da (14,629 Da in another paragraph): only DDDK is left of the N-terminal extension; also called DDDK-Hev b 8; rHev b 8 whole …
T1 chain: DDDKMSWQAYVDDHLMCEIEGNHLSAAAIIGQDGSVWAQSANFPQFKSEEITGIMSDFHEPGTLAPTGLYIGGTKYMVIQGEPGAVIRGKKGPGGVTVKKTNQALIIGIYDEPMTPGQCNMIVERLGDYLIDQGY

[2] = target: T2, biotinylated rHev b 8 (Hevea brasiliensis, biotin (1:5 profilin:biotin ratio; sites not stated)); assay: BLI; same BLI data (biotinylated rHev b 8 on streptavidin, 25 °C, PBS pH 7.4, 0.05% Tween 20, 1 M NaCl); kon from the association step and koff from the dissociation step fitted separately in Prism 8, KD = koff/kon
T2 construct: profilin Hev b 8, Hevea brasiliensis, named 'rHev b 8' in the BLI methods; The BLI methods say only 'Profilin rHev b 8'; also called biotinylated profilin; biotinylated allergen; source: E. coli Rosetta (DE3), purified (HisTrap), then biotinylated at a 1:5 profilin:biotin ratio and dialyzed
T2 chain: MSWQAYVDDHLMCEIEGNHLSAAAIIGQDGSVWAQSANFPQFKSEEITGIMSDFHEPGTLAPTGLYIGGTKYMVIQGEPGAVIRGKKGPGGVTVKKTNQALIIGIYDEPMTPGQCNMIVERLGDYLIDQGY

[3] = target: T2, biotinylated rHev b 8; assay: BLI; biotinylated rHev b 8 (125 nM) on streptavidin biosensors; Fab/IgE 2F5 at 62.5-2000 nM; 25 °C; PBS pH 7.4, 0.05% Tween 20, 1 M NaCl; 1:1 global fit considering nonspecific binding (Association-Dissociation model, GraphPad Prism 8)
[4] = target: T1, DDDK-rHev b 8 (rHev b 8 with the last …); assay: ELISA; plates coated with 100 μL of 0.7 μM profilin in PBS pH 7.4, blocked with 1% BSA; IgE 2F5 in PBS, 1 h 37 °C; detected with HRP anti-mouse IgE Fcε, ABTS, 405 nm; n = 4
[5] = target: T3, recombinant maize profilin (rZea m 12) (Zea mays); assay: as above
T3 construct: profilin Zea m 12, maize; has D14, G98, V118, E128; The mutagenesis primers encode KKT(N)MSL and YLI(D)QGF around positions 98 and 128
T3 chain: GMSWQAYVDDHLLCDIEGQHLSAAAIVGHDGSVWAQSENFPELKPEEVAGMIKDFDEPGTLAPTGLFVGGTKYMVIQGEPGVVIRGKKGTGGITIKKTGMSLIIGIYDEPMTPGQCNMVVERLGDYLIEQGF

binding result [1]: binds
Kd [2]: 369 ± 3.8 nM
Kd [3]: 370 ± 6.8 nM
B1: Fab/IgE 2F5 (papain Fab fragment of the murine IgE 2F5) (Fab, V domains shown)
VH: EVQLVESGGGLVQPKGSLKLSCAASGFTFNTYAMNWVRQAPGKGLEWVARIRTKTNNYVTYYADSVKDRFTISRDDSQSMLYLQMNNLKTEDTAMYYCVRHVGDYWGQGTSVTVSS
VL: DIQMTQSPASLSASVGETVTITCRASGNIHNYLAWFQQKQGKSPQLLVYNAKTLADGVPSRFSGSGSGTQYSLKINSLQPEDFGSYYCQHFWSTPYTFGGGTKLEIK
notes: VH and Cε1; papain cleavage site said to be R209/P210 between Cε1 and Cε2; light chain of IgE 2F5; also called the Fab; source: papain digest of IgE 2F5 (36 h, 37 °C), purified (Superdex 75 SEC, Mono Q)

binding result [4]: binds
binding result [5]: no binding
B2: murine monoclonal IgE antibody 2F5 (anti-profilin Hev b 8) (antibody, V domains shown)
VH: B1 VH
VL: B1 VL
notes: rest of the murine IgE (epsilon) heavy chain constant region after the papain site R209/P210 (Cε2 onward); as the light chain of m2; Native, non-recombinant IgE with naturally paired chains; also called IgE 2F5; mAb 2F5; copies: 2 + 2
